Experiment [1] has as its target T1, GST‐CDC20 (human (cDNA from HEK293T cells), UniProt Q12834 1-499).
T1 construct: CDC20, full-length cDNA amplified from HEK293T cell cDNA; The legend names no limits; source: E. coli BL21, purified (Glutathione Sepharose 4B)
Nature of the experiment: pull-down; purified MBP, MBP‐CCDC68‐FL or MBP‐CCDC68‐Δ280–300 incubated with GST‐CDC20; Coomassie staining and immunoblot. The note with it: both partners purified.

In experiment [2] the target is T1, GST‐CDC20. Put plainly: pull-down; purified CCDC68 (50 nM) incubated with GST or the GST fusion protein; Coomassie staining and immunoblot. The note with it: both partners purified.

T1 sequence (Q12834 whole entry): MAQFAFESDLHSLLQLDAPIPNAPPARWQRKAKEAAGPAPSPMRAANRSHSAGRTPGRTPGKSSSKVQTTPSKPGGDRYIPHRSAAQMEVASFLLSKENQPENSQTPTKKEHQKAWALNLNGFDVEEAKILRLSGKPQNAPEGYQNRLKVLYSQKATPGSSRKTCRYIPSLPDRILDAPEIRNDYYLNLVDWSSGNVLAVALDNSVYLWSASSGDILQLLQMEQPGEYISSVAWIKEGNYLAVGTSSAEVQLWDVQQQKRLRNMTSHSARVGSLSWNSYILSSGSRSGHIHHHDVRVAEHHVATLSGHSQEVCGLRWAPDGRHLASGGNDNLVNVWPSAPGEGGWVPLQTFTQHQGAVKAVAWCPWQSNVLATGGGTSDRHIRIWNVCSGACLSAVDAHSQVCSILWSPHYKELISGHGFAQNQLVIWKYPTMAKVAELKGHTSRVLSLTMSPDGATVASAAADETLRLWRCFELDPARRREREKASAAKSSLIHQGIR

B1: MBP‐CCDC68‐Full length (FL) (natural protein, human (cDNA from HEK293T cells), UniProt Q9H2F9 1-335, looked up)
chain: MTTVTVTTEIPPRDKMEDNSALYESTSAHIIEETEYVKKIRTTLQKIRTQMFKDEIRHDSTNHKLDAKHCGNLQQGSDSEMDPSCCSLDLLMKKIKGKDLQLLEMNKENEVLKIKLQASREAGAAALRNVAQRLFENYQTQSEEVRKKQEDSKQLLQVNKLEKEQKLKQHVENLNQVAEKLEEKHSQITELENLVQRMEKEKRTLLERKLSLENKLLQLKSSATYGKSCQDLQREISILQEQISHLQFVIHSQHQNLRSVIQEMEGLKNNLKEQDKRIENLREKVNILEAQNKELKTQVALSSETPRTKVSKAVSTSELKTEGVSPYLMLIRLRK
notes: CCDC68, full-length cDNA amplified from HEK293T cell cDNA; Vector pCold‐MBP; also called MBP‐CCDC68‐FL; source: E. coli BL21, purified (Amylose Beads, eluted with maltose)
Turning to B1, the binding result in experiment [1] is given as “binds”.

B2: Purified CCDC68 (recombinant, from bacteria) (natural protein, human (cDNA from HEK293T cells), UniProt Q9H2F9 1-335, looked up)
chain: MTTVTVTTEIPPRDKMEDNSALYESTSAHIIEETEYVKKIRTTLQKIRTQMFKDEIRHDSTNHKLDAKHCGNLQQGSDSEMDPSCCSLDLLMKKIKGKDLQLLEMNKENEVLKIKLQASREAGAAALRNVAQRLFENYQTQSEEVRKKQEDSKQLLQVNKLEKEQKLKQHVENLNQVAEKLEEKHSQITELENLVQRMEKEKRTLLERKLSLENKLLQLKSSATYGKSCQDLQREISILQEQISHLQFVIHSQHQNLRSVIQEMEGLKNNLKEQDKRIENLREKVNILEAQNKELKTQVALSSETPRTKVSKAVSTSELKTEGVSPYLMLIRLRK
notes: CCDC68, full-length cDNA amplified from HEK293T cell cDNA; The legend names no limits; also called recombinant CCDC68; source: E. coli BL21, purified (eluted by cleaving the tag with PreScission protease)
On to B2, for which, in experiment [2], the binding result was “binds”.

(Values after article PMC11425217, “CCDC68 Maintains Mitotic Checkpoint Activation by Promoting CDC20 Integration into the MCC” (Advanced Science, 2024).)
